Assay results as given in US20250161359A1.

Assays:
[1] = target: PR3_10_56: PR3_10 (H44A) CD33SP SS CD28TM CAAR (human); experiment: cell-based or functional assay
[2] = target: PR3_1_30: PR3_1_(WT) CD33SP MS CD28TM CAAR (human); experiment: cell-based or functional assay
PR3_1_30: PR3_1_(WT) CD33SP MS CD28TM CAAR (human), sequence (chain, as listed by the source limits assumed): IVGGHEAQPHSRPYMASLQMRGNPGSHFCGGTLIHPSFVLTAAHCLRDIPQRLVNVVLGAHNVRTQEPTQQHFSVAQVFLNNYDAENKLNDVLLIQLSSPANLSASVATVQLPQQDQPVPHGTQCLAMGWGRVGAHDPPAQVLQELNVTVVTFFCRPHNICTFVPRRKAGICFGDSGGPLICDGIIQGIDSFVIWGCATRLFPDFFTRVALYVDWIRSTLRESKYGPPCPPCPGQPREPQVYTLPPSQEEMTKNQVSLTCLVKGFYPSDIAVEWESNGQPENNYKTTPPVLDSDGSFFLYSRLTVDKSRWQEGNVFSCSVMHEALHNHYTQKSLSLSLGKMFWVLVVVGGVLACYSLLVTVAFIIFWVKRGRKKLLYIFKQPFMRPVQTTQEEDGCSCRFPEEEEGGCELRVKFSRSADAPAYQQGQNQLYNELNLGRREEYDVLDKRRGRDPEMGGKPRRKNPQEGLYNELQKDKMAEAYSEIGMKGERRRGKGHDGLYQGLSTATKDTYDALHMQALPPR

PR3_10_56: PR3_10 (H44A) CD33SP SS CD28TM CAAR (human), sequence (chain, as listed by the source H44A H44A limits assumed): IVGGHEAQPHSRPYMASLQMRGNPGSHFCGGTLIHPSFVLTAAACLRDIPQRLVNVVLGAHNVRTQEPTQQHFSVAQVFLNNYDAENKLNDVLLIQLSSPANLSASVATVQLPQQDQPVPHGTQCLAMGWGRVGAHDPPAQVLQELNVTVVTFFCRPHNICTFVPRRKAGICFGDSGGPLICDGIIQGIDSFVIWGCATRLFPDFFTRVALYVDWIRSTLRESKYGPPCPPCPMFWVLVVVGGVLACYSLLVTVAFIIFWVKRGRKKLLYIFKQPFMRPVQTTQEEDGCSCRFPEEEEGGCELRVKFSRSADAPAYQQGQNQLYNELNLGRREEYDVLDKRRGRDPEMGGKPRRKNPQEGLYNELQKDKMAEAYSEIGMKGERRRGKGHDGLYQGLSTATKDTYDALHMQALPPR

Substance: anti-PR3 antibody, EMD Millipore, clone MCPR3-3, catalog #MABF973
- CAAR killing efficiency against the lowest density IgG+-CHO-S target (MCPR3-3 #4 (L)) [1]: 65%
- CAAR killing efficiency against the lowest density IgG+-CHO-S target (MCPR3-3 #4 (L)) [2]: 65%
